Assay results published in the nanobody polyreactivity screen of Harvey et al. (2022).

Experiment: yeast display, Sf9 membrane polyspecificity reagent, FACS + sequencing; frameworks hold sequencing errors
Method in brief: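 Using colony PCR, genes from sorted yeast display clones were amplified, then sequenced on MiSeq at 2 × 250 and filtered by CDR length. The clones had been stained with 10% biotinylated, detergent-solubilized Sf9 membrane reagent for 1 hour at 4 °C and sorted by FACS into low and high (top ~1%) gates on anti-HA and streptavidin fluorescence. Polyreactivity labels come from the gate of origin.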
In the case of “QDQLVESGGGLVQAGGSLRLSCAASGRIFGYYVMGWYRQAPGKERELVAAISGSGGSTYYADSVKGRFTISRDNAKNTVYLQMNSLKPEDTAVYYCNKRATRSRRRGYWGQGTQVTVSS”, the “polyreactivity (PSR sort gate)” value is reported as “low polyreactivity”.
In the case of “QDQLVESGGGLVQAGGSLRLSCAASGRIFHGNAMGWYRQARGKEWELVAAISRRGGSTYSADSVKGRFTISRDNAKNTVYLQMNSLKPEDTAVYYCAAVWPYGSRGAPMDYWGQGTQVTVSS”, the “polyreactivity (PSR sort gate)” value is reported as “high polyreactivity”.
In the case of “QDQLVESGGGLVQAGGSLRLSCAASGRIFPYYAMGRYRQAPGKERELVASISGSGGRTYYADSVKGRFTISRDNAKNTVSLQMNSLKPEDTAVYYCAAYWYKVPGKYGYWGQGTQVTVSS”, the “polyreactivity (PSR sort gate)” value is reported as “high polyreactivity”.
In the case of “QDQLVESGGGLVQAGGSLRLSCAASGRIFQGYAMGWYRQAPGKERELVAAITLSGGSTYYADSVKGRFTISRDNAKNTVYLQMNSLKPEDTAVYYCNAYYPDEPSLYDYWGQGTQVTVSS”, the “polyreactivity (PSR sort gate)” value is reported as “low polyreactivity”.
For “QDQLVESGGGLVQAGGSLRLSCAASGRIFRGNAMGWYRQAPGKEREMVAAISRRSGSTYYADSVKGRFTISRDNAKNTVYLQMNSLKPEDTAVYYCAATSSLGDFRYDYWGQVTQVTVSS”, the “polyreactivity (PSR sort gate)” value was “high polyreactivity”.
In the case of “QDQLVESGGGLVQAGGSLRLSCAASGRIFRGYAMGWYRQAHGKERELVAVISYSGTRTYYADSVKGRFTISRDNAKNTVYIQMNSLKPEDTAVYYCNARANGFKDGYWGEGTQVTVSS”, the “polyreactivity (PSR sort gate)” value is reported as “high polyreactivity”.
With “QDQLVESGGGLVQAGGSLRLSCAASGRIFRSYAMGWYRQAPGKERELVAAINTGGITYYADSVKGRFTISRDNAKNTVYLQMNSLKPEDTAVYYCNTYILSRMNYWGQCTQVTVSS” the “polyreactivity (PSR sort gate)” value was “high polyreactivity”.
For “QDQLVESGGGLVQAGGSLRLSCAASGRIFSRNAMGWYRQAPGKERELVAAITWRGGSTYYADSVKGRFTISRDNAKNTVYLQMTSLKPEDTAVYYCNRDYRQYGYAYSGRYYWGLGTQVTVSS”, the “polyreactivity (PSR sort gate)” value was “high polyreactivity”.
With “QDQLVESGGGLVQAGGSLRLSCAASGRIFVPYSKGWYRQATGKERELVAAISLRGGTTYYSDSVKGRFTISRDNAKNTVYLQMNSLKPEDTAVYYCAARGYVSVWRPYHWFVAGDYWGQGTQVTVSS” the “polyreactivity (PSR sort gate)” value was “high polyreactivity”.
With “QDQLVESGGGLVQAGGSLRLSCAASGRIFYPNAMGWYRQAPGKERELVASISRGGPTSYADSVKGRFTISRDNAKNTVYLQMNSLKPEDTAVYYCAADVAWYRYRSYYWGQGTQVTVSS” the “polyreactivity (PSR sort gate)” value was “high polyreactivity”.
In the case of “QDQLVESGGGLVQAGGSLRLSCAASGRLFDLNAMGWNRQAPGTERELVAVISWSGGITYYADSVKGRFTSSRDNAKNTVYLLMNSLKPEDTAVYYCNADTDFDPYYEFDYWGQGTQVTVSS”, the “polyreactivity (PSR sort gate)” value is reported as “low polyreactivity”.
For “QDQLVESGGGLVQAGGSLRLSCAASGRTFAFKSMGWYRQAPGKERELVAAIRWSGGTTYYADSVKGRFTISRDNANNTVYLQMNSLKPEDTAVYYCATGKWVYFRYNYWGLGTQVTVSS”, the “polyreactivity (PSR sort gate)” value was “high polyreactivity”.
For “QDQLVESGGGLVQAGGSLRLSCAASGRTFRKYAMGWYRPAPGKEREFVAAITSSGGSTYYADSVKGRYTISRDNAKNTVYLQMNSLKPEDTAVYYCAAARTSTGTYRYEYWGQGTQVTVSS”, the “polyreactivity (PSR sort gate)” value was “high polyreactivity”.
In the case of “QDQLVESGGGLVQAGGSLRLSCAASGRTFRYYAMGWYRQAPRKERELVAAISSGGSTNYADSVKARFTISRDNAKNTVYLQMNRLKPEDTGVYYCAVQAWYMTYSYPYSKGYYWGQGTQLTVSS”, the “polyreactivity (PSR sort gate)” value is reported as “high polyreactivity”.
For “QDQLVESGGGLVQAGGSLRLSCAASGRTFSINAMGWYRQAPGKERELVASISSRGTRTNYADSVKGRFTISRDNAKNTVYLQMNSLKPEDTGVYYCAADRYYPYYSAWREYEYWGQGTQVTVSS”, the “polyreactivity (PSR sort gate)” value was “high polyreactivity”.
With “QDQLVESGGGLVQAGGSLRLSCAASGRTFYDNAMGWYRQAPGKERELVAAITWRGGGTYYADSVKGRFTISRDNAKNTVYLQMNSLKPEDTAVYYCAADSSGTGFYAYTDGEEKYSWGQGTQVTVSS” the “polyreactivity (PSR sort gate)” value was “high polyreactivity”.
For “QDQLVESGGGLVQAGGSLRLSCAASGRTLGKNAMGWYRQAPGTERELVAAISSSGGSTYYADSVKGRFTISRDNAKNTVYLQMNSLKPEDTAVYYCAAKYFRKYSQIGPDMYYWGQGTQVTVSS”, the “polyreactivity (PSR sort gate)” value was “high polyreactivity”.
For “QDQLVESGGGLVQAGGSLRLSCAASGRTLYLYAMGWYRQAPGKERELVAGISWSGTSTYYADSVKGRFTISRYNAKNTVYLQMNSLKPEDTAVYYCAADSYPAYLGFVGFDYWGQGTQVTVSS”, the “polyreactivity (PSR sort gate)” value was “low polyreactivity”.
In the case of “QDQLVESGGGLVQAGGSLRLSCAASGSIFAGYVMGWYRQAPGKERELVASISSGTGTFYADSVKGRFTISRDNAKNTVYLQMNSLKPEDTAVYYCAAESYRTVQFIRSRWRYTYDYWGQGTQVTVSS”, the “polyreactivity (PSR sort gate)” value is reported as “low polyreactivity”.
With “QDQLVESGGGLVQAGGSLRLSCAASGSIFGAYARGWYRQAPGKERELVAAISGSGTSTYYADSVKGRFTISRDNAKNTVYLQMNSLKPEDTAVYYCAADGTYFYIYLGDRFDYWGQGTQVTVSS” the “polyreactivity (PSR sort gate)” value was “low polyreactivity”.
With “QDQLVESGGGLVQAGGSLRLSCAASGSIFNPYAMGWYRQAPGKERELVAAITSGGYTYADSVKGRFTISRDNAKNTVYLQMNSLKPEDTAVYYCAADRSYVYAGADMYYWGQGTQVTVSS” the “polyreactivity (PSR sort gate)” value was “low polyreactivity”.
In the case of “QDQLVESGGGLVQAGGSLRLSCAASGSIFQYYAMGWYRQAPGKERELVAAISYSGDGTFYADSVKGRFTISRDNAKNSVYLQMNSLKPVDTAVYYCAASSTGYGGSTYYYWGQGTQVTVSS”, the “polyreactivity (PSR sort gate)” value is reported as “low polyreactivity”.
With “QDQLVESGGGLVQAGGSLRLSCAASGSIFRYVMGWYRQAPGNERELVAAISIRGGSTYYADSVKGRFTISRDNAKNTVFFQMHSLKPEDTAVYYCAADRYRLGVKYDYWGQGTQVTVSS” the “polyreactivity (PSR sort gate)” value was “high polyreactivity”.
For “QDQLVESGGGLVQAGGSLRLSCAASGSIFVQYAMGWYRQAPGKERELVATISSSGGSTYYADSVKGRFTISRDNAKNTVYLQMNCLKPEDTAVYYCAADWTLDPSYGYYADDYWGQGTQVTVSS”, the “polyreactivity (PSR sort gate)” value was “low polyreactivity”.
In the case of “QDQLVESGGGLVQAGGSLRLSCAASGSIFWLNAMGWYRQAPGKERELVAAITTVDSTYYADSVKGRFTISRDNAKNTVYLQMNSLKPEDTAVYYCAASGRQSRYDYWGQGTQVTVSS”, the “polyreactivity (PSR sort gate)” value is reported as “low polyreactivity”.
With “QDQLVESGGGLVQAGGSLRLSCAASGSIFWLYTMGWYRQAPGKERELVAAITGSGSSTYYADSVKGRFTISRDNAKNTVYLQMNSLKPEDTAVYYCAAYWSSARRRYDYWGQGTQVTVSS” the “polyreactivity (PSR sort gate)” value was “high polyreactivity”.
In the case of “QDQLVESGGGLVQAGGSLRLSCAASGSIFYPYAMGWYRQATGKEREFVAGITTRGGSTYYADSVKGRFTISRDNAKNTVYLQMNSLKPVDTAVYYCNAGYYLTLDYWGQGTQVTVSS”, the “polyreactivity (PSR sort gate)” value is reported as “high polyreactivity”.
In the case of “QDQLVESGGGLVQAGGSLRLSCAASGSIFYRYAMGWYRQARGKVREFVAGITYSSGTTYYADSVKGRFTISRDNAKNTVYLQMNSLKPEETAVYYCAAELRSSYYRRAMDYCGQGTQVTVSS”, the “polyreactivity (PSR sort gate)” value is reported as “high polyreactivity”.
For “QDQLVESGGGLVQAGGSLRLSCAASGSTFGYYAMGWYRQAPGKERELVAAITWNGGSTYADSVKGRFTISRDNAKNTVYLQMNSLKPEDTAVYYCAALVHRRVQYDYWGQGTQVTVSS”, the “polyreactivity (PSR sort gate)” value was “high polyreactivity”.
With “QDQLVESGGGLVQAGGSLRLSCAASGSTFHLYAMGWYRQAPGKERELVAAITRRGSDTYYADSVKGRFTISRDNAKNTVYLQMNSLKPEDTAVYYCAARDRHPVWGQGTQVTVSS” the “polyreactivity (PSR sort gate)” value was “low polyreactivity”.
For “QDQLVESGGGLVQAGGSLRLSCAASGSTFPAYAMGWYRQAPGKERELVAAISVRRGRTYYADSVKGRFTSSRDNAKNTVYLQMNSLKPDDTAVYYCAAYLRPGGNYYWGQGTQVTVSS”, the “polyreactivity (PSR sort gate)” value was “high polyreactivity”.
With “QDQLVESGGGLVQAGGSLRLSCAASGSTFPDYAAMGWYRPAPGTERELVAAISKRGGSTYYADSVKGRFTISRDNAKNTVYYQMNSLKPEDTAVYSCNVEYYILTAGRYARAYDYGGQGTQVTVSS” the “polyreactivity (PSR sort gate)” value was “high polyreactivity”.
In the case of “QDQLVESGGGLVQAGGSLRLSCAASGSTFPRYAMGWSRQAPGKERELVAAISSSGRTYYADSVKGRFTISRDNEKNTVYLQMNSLKPEDTAVYYCNAYPVFRSYDYWGQGTQVTVSS”, the “polyreactivity (PSR sort gate)” value is reported as “high polyreactivity”.
With “QDQLVESGGGLVQAGGSLRLSCAASGSTFQTYAMGWYRQAPGKEREVVAAISFNGGSTYYADSVKGRFTISRDNAKNTVYLQMNSLKPEDTAVYSCAVEYTWASALYDGRHDYWGQGTQVTVSS” the “polyreactivity (PSR sort gate)” value was “high polyreactivity”.
For “QDQLVESGGGLVQAGGSLRLSCAASGSTFRRYDMGWYRQAPGKERELVAAISHRTGRTSYADSVKGRFTISRDNAKNTVYLQMNSLKTEDTAVYYCAADHTYYRQGYDYWGQGTQVTVSS”, the “polyreactivity (PSR sort gate)” value was “high polyreactivity”.
For “QDQLVESGGGLVQAGGSLRLSCAASGSTFSWYAMGWYRQAPGKERELVAAINNRSGSTSYADSVKGRFTISRDNAKNTVYLQMNSLKPEDTAVYYCAAEGTDGLYDWEYDYWGQGTQVTVSS”, the “polyreactivity (PSR sort gate)” value was “high polyreactivity”.
In the case of “QDQLVESGGGLVQAGGSLRLSCAASGSTFSYNAMGWYRQAPGKERELVAAIRWSGGSTYADSVKGRFTISRDNAKNTVYLQMNSLNPEDTAVYYCAARNFGYPELRYYYWGQGTQVTVSS”, the “polyreactivity (PSR sort gate)” value is reported as “high polyreactivity”.
In the case of “QDQLVESGGGLVQAGGSLRLSCAASGSTFTDYDMGWYRQAPGKERELVAAITSGGSTNYADSVKGRFTISRDNAKNTVYLQMNSLKPEDTAVYYCAAELRYYLYDVVYIVTYDYWGQGTQVTVSS”, the “polyreactivity (PSR sort gate)” value is reported as “low polyreactivity”.
With “QDQLVESGGGLVQAGGSLRLSCAASGSTFTKYAMGWYRQAPGKERELVAAIISYRVGSTYYADSVKGRFTISRDNAKINVYLVMKSLIPEDTAAFYCAAVWKPPGFSTMYYWGQGTEVTVSS” the “polyreactivity (PSR sort gate)” value was “high polyreactivity”.
With “QDQLVESGGGLVQAGGSLRLSCAASGSTFVDNAIGWYRQAPGKERELVAAISRGGSTHYADSVKGRFTISRDNAKNTVYLQMNSLKPEDTAVYYCAAVIDSREEYWGQGTQVTVSS” the “polyreactivity (PSR sort gate)” value was “high polyreactivity”.
